Experimental data from patent US20140235701, “NGF APTAMER AND APPLICATION THEREOF” (RIBOMIC INC., published 2014).
Numbering of substitutions follows the chain as printed.

Legend:
Details in all cases: tags: R&D Systems; chain copies: 2
NT-3 (neurotrophin-3) [1] = biological target: T1, NT-3 (neurotrophin-3) (Homo sapiens, UniProt P20783 P20783:139-257); assay: cell_activity; TF-1
T1 sequence: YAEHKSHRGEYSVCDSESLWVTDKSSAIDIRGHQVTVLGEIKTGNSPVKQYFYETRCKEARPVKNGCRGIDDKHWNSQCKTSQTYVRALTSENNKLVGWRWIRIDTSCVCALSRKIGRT
Description: (§1) Using TF-1 cells, whether NGF aptamer inhibits BDNF, NT-3, NT-4 was examined. Human receptor genes (TrkB, TrkC, p75) for respective neurotrophic factors were introduced into TF-1 cells (ATCC Number: CRL-2003), which is a human erythroleukemic cell line, by using a retrovirus vector to give cells that highly express these receptors stably. TF-1 cells introduced with TrkB and p75 were used for the evaluation of inhibitory activity against BDNF, TF-1 cells introduced with TrkC and p75 were used for the evaluation against NT-3, and TF-1 cells introduced with TrkB alone were used for the evaluation against NT-4. These cells were suspended in an RPMI-1640 medium containing 20% fetal bovine serum, and seeded in a white 96 well flat-bottom plate at 1000 cells (50 μL) per well. Thereto was added a mixed solution 50 μL of human BDNF (final concentration 0.074 nM) or NT-3 (final concentration 0.074 nM) or NT-4 (final concentration 0.071 nM) and the aptamer (final concentration 1 μM-0.01 nM), which had been pre-reacted at room temperature for 30 min in a serum-free RPMI-1640 medium, 3 days later, 100 μL of CellTiter-Glo reagent for CellTiter-Glo Luminescent Cell Viability Assay (manufactured by Promega) was added to each well, chemiluminescence was measured by a microplate reader. With the amount of luminescence per well obtained by the addition of BDNF or NT-3 or NT-4 alone and culture of the cells for 3 days as inhibitory activity 0%, and that of the well obtained by culture for 3 days without addition of BDNF or NT-3 or NT-4 as inhibitory activity 100%, the inhibitory activity of the aptamer was calculated from the amount of luminescence per well obtained by culturing with the addition of BDNF or NT-3 or NT-4 and the aptamer in mixture. When the inhibitory activity was 0 or below, ‘0%’ is indicated. The 50% inhibitory concentration (IC₅₀) was determined from the concentrations at two, above and below points sandwiching the 50% inhibitory activity. An IC₅₀ value indicated as “>X” means that the inhibitory activity was not more than 50% when the indicated concentration X was the maximum measured concentration. N.D. means not measured.

NT-4 (neurotrophin-4) [2] = biological target: T2, NT-4 (neurotrophin-4) (Homo sapiens, UniProt P34130 P34130:81-210); assay: cell_activity; TF-1
T2 sequence: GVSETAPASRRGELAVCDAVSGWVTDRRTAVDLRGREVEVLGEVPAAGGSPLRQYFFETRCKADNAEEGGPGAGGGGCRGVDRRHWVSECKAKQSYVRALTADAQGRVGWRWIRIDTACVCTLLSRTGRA
Description: as §1

[3] = biological target: T3, NGF (nerve growth factor) (Homo sapiens, UniProt P01138 P01138:122-241); assay: cell_activity; neurite; TF-1 0.085
T3 sequence (P01138 122-241, one chain of several): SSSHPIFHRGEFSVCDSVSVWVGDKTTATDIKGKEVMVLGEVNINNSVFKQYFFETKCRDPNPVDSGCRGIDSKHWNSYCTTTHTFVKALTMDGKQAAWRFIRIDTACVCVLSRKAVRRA

[4] = biological target: T3, NGF (nerve growth factor); assay: SPR; binding maintained on shortening
[5] = biological target: T3, NGF (nerve growth factor); assay: cell_activity; neurite; TF-1 0.021
[6] = biological target: T3, NGF (nerve growth factor); assay: cell_activity; neurite; TF-1 0.022
[7] = biological target: T3, NGF (nerve growth factor); assay: cell_activity; neurite; TF-1 <0.03
[8] = biological target: T3, NGF (nerve growth factor); assay: cell_activity; neurite; TF-1 0.013
NT-3 (neurotrophin-3) [9] = biological target: T1, NT-3 (neurotrophin-3); assay: cell_activity; TF-1 TrkC/p75 cells
Description: as §1

NT-4 (neurotrophin-4) [10] = biological target: T2, NT-4 (neurotrophin-4); assay: cell_activity; TF-1 TrkB cells
Description: Using TF-1 cells, whether NGF aptamer inhibits BDNF, NT-3, NT-4 was examined. Human receptor genes (TrkB, TrkC, p75) for respective neurotrophic factors were introduced into TF-1 cells (ATCC Number: CRL-2003), which is a human erythroleukemic cell line, by using a retrovirus vector to give cells that highly express these receptors stably. TF-1 cells introduced with TrkB and p75 were used for the evaluation of inhibitory activity against BDNF, TF-1 cells introduced with TrkC and p75 were used for the evaluation against NT-3, and TF-1 cells introduced with TrkB alone were used for the evaluation against NT-4. These cells were suspended in an RPMI-1640 medium containing 20% fetal bovine serum, and seeded in a white 96 well flat-bottom plate at 1000 cells (50 μL) per well. Thereto was added a mixed solution 50 μL of human BDNF (final concentration 0.074 nM) or NT-3 (final concentration 0.074 nM) or NT-4 (final concentration 0.071 nM) and the aptamer (final concentration 1 μM-0.01 nM), which had been pre-reacted at room temperature for 30 min in a serum-free RPMI-1640 medium, 3 days later, 100 μL of CellTiter-Glo reagent for CellTiter-Glo Luminescent Cell Viability Assay (manufactured by Promega) was added to each well, chemiluminescence was measured by a microplate reader. With the amount of luminescence per well obtained by the addition of BDNF or NT-3 or NT-4 alone and culture of the cells for 3 days as inhibitory activity 0%, and that of the well obtained by culture for 3 days without addition of BDNF or NT-3 or NT-4 as inhibitory activity 100%, the inhibitory activity of the aptamer was calculated from the amount of luminescence per well obtained by culturing with the addition of BDNF or NT-3 or NT-4 and the aptamer in mixture. […] The 50% inhibitory concentration (IC₅₀) was determined from the concentrations at two, above and below points sandwiching the 50% inhibitory activity. An IC₅₀ value indicated as “>X” means that the inhibitory activity was not more than 50% when the indicated concentration X was the maximum measured concentration. N.D. means not measured.

[11] = biological target: T3, NGF (nerve growth factor); assay: cell_activity; TF-1 cell proliferation inhibition
Protocol: (§2) Two NGF receptor (human TrkA and human p75) genes were introduced into TF-1 cells (ATCC Number: CRL-2003), which is a human erythroleukemic cell line, by using a retrovirus vector to give cells that highly express two receptors simultaneously and stably. The cells were suspended in an RPMI-1640 medium containing 20% fetal bovine serum, and seeded in a white 96 well flat-bottom plate at 1000 cells (50 μL) per well. […] With the amount of luminescence per well obtained by the addition of NGF alone and culture of the cells for 3 days as inhibitory activity 0%, and that of the well obtained by NGF free culture for 3 days as inhibitory activity 100%, the inhibitory activity of the aptamer was calculated from the amount of luminescence per well obtained by culturing with the addition of NGF and the aptamer in mixture.

[12] = biological target: T3, NGF (nerve growth factor); assay: cell_activity; neurite; TF-1 0.084
Protocol: With the neurite length per cell obtained by the addition of NGF alone as inhibitory activity 0%, and that of the cell obtained by NGF free culture for 2 days as inhibitory activity 100%, the inhibitory activity of the aptamer was calculated from the neurite length per cell obtained by culturing with the addition of NGF and the aptamer in mixture.
as §2

[13] = biological target: T3, NGF (nerve growth factor); assay: cell_activity; neurite outgrowth inhibition
Protocol: The cells (2500 cells per well) were cultured for one day in an RPMI-1640 medium containing 2.5% horse serum and 1.25% fetal bovine serum in a 96 well flat-bottom plate coated with collagen type IV. […] Two days later, the cytoplasm and nuclei were stained using Cellomics Neurite Outgrowth Kit (manufactured by Thermo Scientific), and neurite length per cell was measured by Cellomics ArrayScan VTI (manufactured by Thermo Scientific). With the neurite length per cell obtained by the addition of NGF alone as inhibitory activity 0%, and that of the cell obtained by NGF free culture for 2 days as inhibitory activity 100%, the inhibitory activity of the aptamer was calculated from the neurite length per cell obtained by culturing with the addition of NGF and the aptamer in mixture.

[14] = biological target: T3, NGF (nerve growth factor); assay: SPR; inhibits NGF-receptor binding; inhibits neurite outgrowth at 10 nM

**Q.** Which IC50 (NT-3 (neurotrophin-3) [1]) does the source give for GGGUCCUGGAUAAGAGTUUCCGUCUCGUAUCCUGUUACCC (ssRNA, as 82(1) except dT17) [SEQ ID NO: 156] here?
**A.** < 30 nM

**Q.** What about the IC50 (NT-4 (neurotrophin-4) [2]) of the same binder?
**A.** < 3 nM

**Q.** What about the IC50 [3] of the same binder?
**A.** < 0.1 nM

**Q.** Does GGGUCCUGCGUAAGAGUUUCCGUCUCGUAUGCUGUUACCC (ssRNA, 2'-F C and U; 2'-OH G; 2'-H (deoxy) A) [SEQ ID NO: 90] bind [4]?
**A.** binds

B1: SEQ ID NO: 78(4) (printed 76(4) in sequence list) (ssRNA)
RNA: GGGUCCUGGCCAAGAGUUUCCGUCUCGUGGUCUGUUACCC
modifications: 2'-OMe G (G8,G34 2'-OH), dA, 2'-F C/U except 2'-OMe U4,C6,C10,C11,C21,U23,C26,U28,U31,C32,U35,C38-40; 5',3' idT
**Q.** What does the source list for B1?
**A.** IC50 (NT-3 (neurotrophin-3) [1]): 3 nM; IC50 (NT-4 (neurotrophin-4) [2]): < 100 nM; IC50 [5]: 0.037 nM

**Q.** For GGGUCCUGGAUAAGAGUUUCCGUCUCGUAUCCUGUUACCC (ssRNA, as 82(25) except 2'-OMe A29) [SEQ ID NO: 82(46)], which IC50 [6] is on record?
**A.** 0.033 nM

**Q.** GGGUCCUGGAUAAGAGUUUCCGUCUCGUAUCCUGUUACCC (ssRNA, as 82(25) except 2'-OMe A15) [SEQ ID NO: 82(42)] was tested. Which IC50 [5] did it give?
**A.** 0.037 nM

**Q.** For GGGUCCUGGAUAAGAGUUUCCGUCUCGUAUCCTGUUACCC (ssRNA, as 82(1) except dT33) [SEQ ID NO: 158], which IC50 (NT-3 (neurotrophin-3) [1]) is on record?
**A.** < 30 nM

**Q.** What about the IC50 (NT-4 (neurotrophin-4) [2]) of the same binder?
**A.** < 3 nM

**Q.** What about the IC50 [7] of the same binder?
**A.** 0.1 nM

**Q.** Does GGGUCCUGCCUAAGAGUUUCCGUCUCGUAGGCUGUUACCC (ssRNA, 2'-F C and U; 2'-OH G; 2'-H (deoxy) A) [SEQ ID NO: 91] bind [4]?
**A.** binds

**Q.** Which IC50 [8] does the source give for GGGUCCUGAUUAAGAGUUUCCGUCUCGUAAUCUGUUACCC (ssRNA, 2'-OMe G (G8,G34 2'-OH), dA, 2'-F C/U; 5',3' idT) [SEQ ID NO: 76(1)] here?
**A.** 0.117 nM

B2: SEQ ID NO: 82(2) (ssRNA)
RNA: B1 RNA with C10A, C11U, G29A, G30U, U31C
modifications: 2'-F C and U except U4; 2'-OMe G1-3,U4,G9,G14,G16,G22,G27; 2'-OH G8,G34; 2'-H A; idT 5' and 3'
**Q.** How did the IC50 (NT-3 (neurotrophin-3) [9]) turn out when B2 was run?
**A.** 40.6 nM

**Q.** What about the IC50 (NT-4 (neurotrophin-4) [10]) of the same binder?
**A.** < 3 nM

**Q.** What about the IC50 [11] of the same binder?
**A.** 0.041 nM

**Q.** Which IC50 (NT-3 (neurotrophin-3) [1]) does the source give for GGGUCCUGGAUAAGAGUUUCCGUCUCGUAUCCUGUUACCC (ssRNA, as 82(1) except 2'-OMe U4,C6,U11,C21,U23,C26,U30,C31,C32,U35,C38-40) [SEQ ID NO: 82(23)] here?
**A.** < 30 nM

**Q.** What about the IC50 [12] of the same binder?
**A.** < 0.1 nM

B3: SEQ ID NO: 82(55) (ssRNA)
RNA: B1 RNA with C10A, C11U, G29A, G30U, U31C
modifications: 2'-F C5,U7,U17,U18,U19,C20,C24,U25,U33,U36; 2'-OH G8,G34; 2'-H A; 2'-OMe all other; 5' PEG80TS4; 3' idT
**Q.** What does the source list for B3?
**A.** IC50 (NT-3 (neurotrophin-3) [9]): 0.97 nM; IC50 [13]: 0.101 nM; IC50 [11]: 0.039 nM

**Q.** How did the IC50 [8] turn out when GGGUCCUGACUAAGAGUUUCCGUCUCGUAGUCUGUUACCC (ssRNA, 2'-OMe G (G8,G34 2'-OH), dA, 2'-F C/U; 5',3' idT) [SEQ ID NO: 77(1)] was run?
**A.** 0.126 nM

**Q.** Which IC50 (NT-3 (neurotrophin-3) [1]) does the source give for GGGUCCUGGAUAAGAGUUUCCGUCUCGUAUCCUGUUACCC (ssRNA, as 82(1) except 2'-OMe U4,C6,U11,C21,U23,U28,U30,C32,U35,C38-40) [SEQ ID NO: 82(21)] here?
**A.** < 30 nM

**Q.** What about the IC50 [3] of the same binder?
**A.** < 0.1 nM

B4: SEQ ID NO: 8 (ssRNA)
RNA: GGGAGAACUUCGACCAGAAGAUCCACUGGUACUACGUGACCCCGCAUAGGCAAUCCUGCUUAUGUGCGCAUACAUGGAUCCUC
modifications: 2'-F C and U; 2'-OH G; 2'-H (deoxy) A
**Q.** Does B4 bind [14]?
**A.** binds
